Molecular target: the molecule itself
Assay: SEC

B1: CeLGRwt (full-length C. elegans LGR) (receptor)
chain: QNALSLAQTKHSCMALKAEDGEGCTCKQTKRYGQPECCCMGLIVSQLPTNLTADVGYLYLHNTSISVITPNFFDKFPSIRELEIDNSAHLEHIDGSSLSVLSKLRKLSVVKCPNLREISGKLLVNNTRIQNVILKNNGLATMPSLRMTDAHHVLLDRIDLSGNKIKFISDSKVRNVKARTVVLSENKLIEISGYAFTESQFLKLKLNNNPDLRSLSVDAFKNMAGLQTLDLSHTSIDTLPINGLKKLKTLILNDVPTLKSLPSVLSFTDLETAHFTYPHHCCLFKYVDDVTMNDNGKYQRNAKEIHKRICDKREQQKVARRRKRETSGIDFLDMLLKEWTDNSTYTGPDDADDDELPPFVEIGAEPCQSIGEEVQKYYSNITCYPQPDALNPCENIVGYPFLRIAVWVVCLAAIVGNIIVWALLGIVYEKRMRMHYLYMINMSVADMVTGIYLAVLAIADAKMSDEYYRHAVWWQTGWGCRAAGFLAVFASELGIISMFLIAFEMSYNTRQSFRGRRLSPKVGVLLMIGGWLFAIIMAILPWFDVSSYSESSVCLPLRAATIFDKSYLIFGLSFNFLAFAAMALSYGFIVKMLKENETREEDRALITKMTVLVVTDLICWFPTLFFGFTATIGFPLLSLSSAKFVLVFFFPINAFANPFLYVFFTEVIQHRVRSKTLPVIRRITTGPLNAASSLSNFYHSQPPGAHRRSRDEPTSPSGMHLAVTQTTSLNSTPRGSDVSRASDGMLFDYDRRASASPRVSFDIPISPTTPRSDRKNRISLLKRIVSSIPEVSDLSEHSSESHHEHVPHPRRKLRSSLNRILALGRRQEGSADSGRGSIASSAGSRDQNERVSLTSNASSILSPLLSPTNSNILILPPEPSKNRRKSTPAIPLLVVSDCS
stoichiometry N: 2

Source: paper PMC12753827 (Nature Communications, 2025)
